These results are taken from patent publication US9328334B2, “Luciferase derived from lucidina accensa” (OLYMPUS CORPORATION, priority 2011, dated 2016).

Changes are numbered by the printed parent chain. Numbers in names are those of the source. Entries after “also recorded” stand apart in the source; their conditions may differ.

Data set [1] in a line: Stability against degradation: SDS-polyacrylamide gel electrophoresis of lysate of E. coli expressing each luciferase (Example 4). Conditions: lysate of E. coli BL21 (DE3) CodonPlus expressing the luciferase. As to the method: Stability against degradation was determined for the wild type luciferase derived from L. accensa in comparison with a known luciferase derived from L. biplagiata.
The above three genes were introduced into an expression vector and expressed in E. coli. The expression was carried out in the same manner as the Example 2 except that BL21 (DE3) CodonPlus (manufactured by Stratagene Corporation) was used as E. coli strain and the cells were cultured appropriately.
The lysate was prepared from the E. coli expressing each gene, and then subjected to SDS-polyacrylamide gel electrophoresis. It was confirmed that, as a band with the biggest size, a single band is present near 70 kDa for all three kinds of protein. […] Meanwhile, in the luciferase derived from L. biplagiata (i.e., left and right lanes), several bands with a size smaller than 70 kDa were identified.

A further data set has as its system HeLa cells. Nature of the data set: Luminescence intensity of luciferase expressed in HeLa cells, comparison with L. biplagiata luciferase (Example 5). The format is cell-based. Conditions: 37° C. From the text:
The luminescence intensity from the light emitting reaction using the wild type luciferase derived from L. accensa (SEQ ID NO: 1) was compared to the luminescence intensity from the light emitting reaction using the luciferase derived from L. biplagiata having the literature sequence (SEQ ID NO: 30) or the luciferase derived from L. biplagiata having the cloned sequence (SEQ ID NO: 31). Further, based on the difference between the literature sequence and the cloned sequence, the amino acid residue at position 249 of the amino acid sequence of the wild type luciferase, i.e., methionine, was changed to lysine to prepare the mutant luciferase (M249K), which was then used for the intensity measurement.
With regard to the four types of the luciferase, a nucleic acid containing a gene optimized for mammalian cell expression was given with a Kozak sequence, and then inserted between SgfI and PmeI sites within the multicloning site of pF9A CMV hRLuc neo Flexi vector (manufactured by Promega). Further, since the pF9A vector contains the luciferase gene derived from Renilla reniformis as an internal control in the vector sequence, it is possible to obtain the luminescence intensity from the luminescent gene inserted to the multicloning site as a ratio compared to the luminescence intensity emitted by the Renilla luciferase.
Four types of luciferase plasmids obtained in such a manner described above were each subjected to gene transfection to HeLa cells inoculated in a 48-well plate by a lipofection method, and 24 hours later, the cells were washed with PBS. To each well of a 48-well plate, 500 μL of 2 mM D-luciferin/CO2 Independent Medium (manufactured by Invitrogen) was added and the luminescence intensity was measured for 90 min by using a Luminescensor (manufactured by ATTO Corporation) under the condition including 37° C. and 1 sec per each well. The luminescence intensity which is obtained at the time point of 90 min after starting the measurement was taken as the luminescence intensity of each luciferase. […] Subsequently, 500 μL of 10 μM coelenterazine/CO2 Independent Medium was added to each well and the luminescence intensity was measured for 30 min by using a Luminescensor under the condition including 37° C. and 1 sec per each well. The luminescence intensity obtained at five minutes after the addition of coelenterazine was taken as luminescence intensity of the Renilla luciferase, which is an internal control. Each of the luminescence intensities from the luciferases was divided by the luminescence intensity of the Renilla luciferase, yielding the luminescence intensity of each luciferase. The measurements were carried out multiple times for each luciferase, and the luminescence intensity was obtained as a mean value.

Data set [2] can be described thus: Measurement of Km value with respect to ATP. The format is biochemical. Conditions: 0.1 M Tris-HCl pH 8.0, D-luciferin and MgSO4 present. As to the method: Various 8 types of ATP solutions with different concentrations were prepared by adding ATP to 0.1 M Tris-HCl (pH 8.0). These solutions contain ATP at final concentration of 10, 20, 40, 80, 160, 320, 480, and 640 μM. These ATP solutions were aliquoted into a 96-well microplate at a volume of 50 μl each. 0.1 M Tris-HCl (pH 8.0) solution containing each purified luciferase, 1 mM of D-luciferin, and 8 mM of MgSO4 was connected to a standard pump of a luminometer, and the measurement was carried out at the same time as addition of 50 μL of the solution to wells. Measurement was repeated 3 times for each ATP concentration.
The peak intensities of the obtained photon count value were plotted with respect to ATP concentration S, with an initial rate V. The plots were subjected to curve fitting of Michaelis Menten type, thereby giving Km value. The curve fitting was performed by a nonlinear least-squares method, and the search of the parameter was performed by a Newton method.

A further data set has as its system HeLa cell. The data set can be described thus: Luminescence intensity of luciferase expressed in HeLa cell, comparison with P. pyralis luciferase (Example 3). The class given is cell-based. Conditions: 2 mM D-luciferin, 25° C., 90 min after starting measurement. As to the method:
Each of the wild type luciferase derived from L. accensa, the mutant luciferase derived from L. accensa (N50D and 1530R), and the luciferase derived from P. pyralis (SEQ ID NO: 33) was expressed in a HeLa cell, and the luminescence intensity was measured and compared to each other.
Further, since the pF9A vector contains the luciferase gene derived from Renilla reniformis as an internal control, it is possible to obtain the luminescence intensity from the luminescent gene inserted to the multicloning site as a ratio compared to the luminescence intensity emitted by the Renilla luciferase.
Three types of plasmids obtained in such a manner described above were each subjected to gene transfection to a HeLa cell, which has been inoculated in a 24-well plate, by a lipofection method, and 24 hours later, the cells were washed with PBS. To each well of a 24-well plate, 500 μL of 2 mM D-luciferin/CO2 Independent Medium (manufactured by Invitrogen) was added and the luminescence intensity was measured for 90 min by using a Luminescensor (manufactured by ATTO Corporation) under the condition including 25° C. and 1 sec per each well. The luminescence intensity which is obtained at the time point of 90 min after starting the measurement was taken as the luminescence intensity of the wild type luciferase, the mutant luciferase, and P. pyralis luciferase. […] Subsequently, 500 μL of 10 μM coelenterazine/CO2 Independent Medium was added to each well and the luminescence intensity was measured for 30 min by using a Luminescensor under the condition including 25° C. and 1 sec per each well. The luminescence intensity obtained at five minutes after the addition of coelenterazine was taken as luminescence intensity of the Renilla luciferase, which is an internal control. Each of the luminescence intensity from the wild type luciferase, the mutant luciferase, and P. pyralis luciferase was divided by the luminescence intensity of the Renilla luciferase, and the results are illustrated as a graph illustrating the luminescence intensity of each luciferase.

The nature of data set [3]: Measurement of light emission spectra of purified luciferase under various pH environments. The class given is biochemical. Conditions: light emission spectra at various pH. As to the method:
With use of LumiFlSpectroCapture (manufactured by ATTO Corporation) as an apparatus for measurement, to a solution of 0.1 M citric acid/0.1 M Na2HPO4 buffer (pH 5.5 to 8.0) containing 1 mM of D-luciferin, 2 mM of ATP and 4 mM of MgCl2 the purified enzyme was added at a final concentration of 1 μg/mL, and after 15 seconds of addition of the enzyme luminescence spectra was measured. The measurement results were illustrated in FIG. 1.
After that, each of thus-prepared genes (SEQ ID NOs: 38 and 39) was introduced into pRSET-B vector according to the same method as the Example 2. This vector was transformed to E. coli JM109 (DE3) strain to express the mutant luciferase. Subsequently, the mutant luciferase was purified from E. coli. In addition, under various pH environments, the light emission spectrum was measured according to the same method as the Example 2 from a light emitting reaction catalyzed by the mutant luciferase.

A short description of data set [4]: Measurement of Km for D-luciferin. The class given is biochemical. The note with it: 0.1 M Tris-HCl pH 8.0, ATP and MgSO4 present. As to the method:
Eight types of D-luciferin solution of various concentrations were prepared by adding D-luciferin to 0.1 M Tris-HCl (pH 8.0). These solutions contain D-luciferin at final concentrations of 0.625, 1.25, 2.5, 5, 10, 20, 40, and 80 μM. These D-luciferin solutions were aliquoted into 96-well microplate at a volume of 50 μL each. A solution of 0.1 M Tris-HCl (pH 8.0) containing each of the purified luciferase, 4 mM of ATP, and 8 mM of MgSO4 was connected to the standard pump of the luminometer, and the measurements was carried out at the same time as addition of 50 μL of the solution to the well. A Luminescensor (manufactured by ATTO Corporation) was used for the measurements. Measurements were repeated 3 times for each luciferin concentration.
The peak intensity of the obtained photon count value was plotted with respect to luciferin concentration S, defining the initial rate as V. The plots were subjected to curve fitting of Michaelis Menten type, thereby giving Km values. The curve fitting was performed by a nonlinear least-squares method, and the search of the parameter was performed by a Newton method.

Data set [5] deals with E. coli JM109 (DE3) strain. The data set can be described thus: Temperature dependency of luminescence intensity: E. coli colonies heat treated at 55° C., CCD image (Example 7). The class given is cell-based, Escherichia coli. Conditions: 55° C. for 1 hour, 0.5 mM D-luciferin spray. As to the method: Each of the wild type luciferase gene and two kinds of the mutant gene obtained in the Example 6 was introduced into pRSET-B vector and transformed to E. coli JM109 (DE3) strain to form a colony. Thus-obtained colony was cultured and applied on a LB agar medium to form again the colony for 24 hours. After that, it was subjected to the heat treatment at 55° C. for 1 hour and kept at room temperature for 1 hour. It was then sprayed with a liquid containing 0.5 mM D-luciferin and a photographic image thereof was taken for 1 min by using a CCD camera (trade name: DP70, manufactured by Olympus Corporation).

B1: wild type luciferase: wild type luciferase obtained from Lucidina accensa, amino acid sequence SEQ ID NO: 1 (protein, listed as Lucidina accensa)
chain: MEEDKNILRGPAPFYPLEDGTAGEQLHRAMKRYALIPGTIAFTDAHAGVNITYSEYFEMACRLAESLKRYGLGLQHRIVVCSENSLQFFMPVVGALFIGVGVAPANDIYNERELLNSMTISQPTLVFCSRKGLQKILNVQKKLPVIQKIIILDTKEDYMGFQSMYSFVDSQLPVGFNEYDYVPDSFDRDQATALIMNSSGSTGLPKGVELNHTSVCVRFSHCRDPVYGNQIIPDTAILSVIPFHHGFGMFTTLGYLICGFRVVLMYRFEEELFLRSLQDYKIQSALLVPTLFSFFAKSTLIDKYDLSNLHEIASGGAPLAKEVGEAVAKRFNLRGIRQGYGLTETTSAVIITPEGDDKPGAVGKVVPFFSAKVVDLDTGKTLGVNQRGELCLKGPMIMKGYVNNPEATNALIDKDGWLHSGDISYWDEDGHFFIVDRLKSLIKYKGYQVPPAELESILLQHPFIFDAGVAGIPDDEAGELPAAVVVLEEGKTMTEKEIMDYVAGQVTTAKRLRGGVVFVDEVPKGLTGKIDARKIREILVKVKKTKSKL
In general, Km refers to the substrate concentration at which the rate is half of its maximum. B1: the “stability against protein degradation (bands on stained SDS-PAGE gel)” value in data set [1] is reported as “no other band was identified; also recorded: hardly degraded; also recorded: no degradation occurred”. Besides, in the data set with HeLa cells (2 mM D-luciferin, 90 min), the “luminescence intensity, mean value (divided by Renilla luciferase intensity)” value is 3.48. For the same molecule, the “luminescence intensity in comparison to luciferase derived from L. biplagiata having the literature sequence” value with HeLa cells was at least 29 times. In addition, the “luminescence intensity in comparison to mutant luciferase M249K” value in the data set with HeLa cells is recorded as at least 34.8 times. The Km in data set [2] stood at 47.6 µM; in data set [4], 16 µM. In the data set on HeLa cell, the “luminescence intensity (divided by luminescence intensity of Renilla luciferase internal control)” value is on record as 7.3. For the same molecule, the “pH environment giving the highest luminescence intensity” value in data set [3] is given as 8 pH.

B2: mutant luciferase (E322W): L. accensa luciferase mutant with E322W, amino acid sequence SEQ ID NO: 36 (protein, listed as Lucidina accensa)
chain: B1 chain with E322W
With B2, the “light emission compared to the wild type luciferase at 55° C.” value in data set [5] is on record as “stronger light emission; also recorded: higher luminescence intensity”. In addition, the “pH environment giving the highest luminescence intensity” value in data set [3] came out at 8.0 pH.
